Assay results published in patent US20150023971A1.

Assays:
[1] = target: T1, …; assay: SPOT length analysis, dot 29, anti-histidine detection
T1 sequence (peptide): RIFRSSDFA

VQTD = target: T2, VQTD; assay: SPOT length analysis, dot 91, HRP-S-protein detection
T2 sequence (peptide): VQTD

IFRSSDF = target: T3, IFRSSDF; assay: SPOT length analysis, dot 47, HRP-S-protein detection
T3 sequence (peptide): IFRSSDF

[2] = target: T4, …; assay: SPOT length analysis, dot 8, anti-histidine detection
T4 sequence (peptide): IFRSSDFAKNFVQ

IFRSSDFA [3] = target: T5, IFRSSDFA; assay: SPOT length analysis, dot 38, anti-histidine detection
T5 sequence (peptide): IFRSSDFA

SDFA = target: T6, SDFA; assay: SPOT length analysis, dot 84, anti-histidine detection
T6 sequence (peptide): SDFA

[4] = target: T7, sortilin peptide … on SPOT membrane; assay: SPOT length analysis, dot 36, HRP-S-protein detection
T7 sequence (peptide, C-terminus anchored to the cellulose membrane through a beta-alanine linker): FAKNFVQTD

[5] = target: T8, …; assay: SPOT length analysis, dot 32, HRP-S-protein detection
T8 sequence (peptide): RSSDFAKNF

[6] = target: T9, …; assay: SPOT length analysis, dot 17, anti-histidine detection
T9 sequence (peptide): IFRSSDFAKNF

[7] = target: T10, …; assay: SPOT length analysis, dot 6, HRP-S-protein detection
T10 sequence (peptide): FRSSDFAKNFVQTD

[8] = target: T11, …; assay: SPOT length analysis, dot 9, HRP-S-protein detection
T11 sequence (peptide): FRSSDFAKNFVQT

[9] = target: T12, sortilin 4-mer peptide RIFR (length analysis); assay: SPOT length analysis, dot 79, HRP-S-protein detection
T12 sequence (peptide, C-terminus anchored to the cellulose membrane through a beta-alanine linker): RIFR

RSSDF = target: T13, RSSDF; assay: SPOT length analysis, dot 70, anti-histidine detection
T13 sequence (peptide): RSSDF

KNFVQTD [10] = target: T14, KNFVQTD; assay: SPOT length analysis, dot 55, HRP-S-protein detection
T14 sequence (peptide): KNFVQTD

[11] = target: T15, …; assay: SPOT length analysis, dot 35, anti-histidine detection
T15 sequence (peptide): DFAKNFVQT

SSDF [12] = target: T16, SSDF; assay: SPOT length analysis, dot 83, anti-histidine detection
T16 sequence (peptide): SSDF

[13] = target: T17, …; assay: SPOT length analysis, dot 31, HRP-S-protein detection
T17 sequence (peptide): FRSSDFAKN

[14] = target: T18, …; assay: SPOT length analysis, dot 21, anti-histidine detection
T18 sequence (peptide): SDFAKNFVQTD

RSSD = target: T19, RSSD; assay: SPOT length analysis, dot 82, HRP-S-protein detection
T19 sequence (peptide): RSSD

NFVQ = target: T20, NFVQ; assay: SPOT length analysis, dot 89, HRP-S-protein detection
T20 sequence (peptide): NFVQ

FRSSDFA = target: T21, FRSSDFA; assay: SPOT length analysis, dot 48, HRP-S-protein detection
T21 sequence (peptide): FRSSDFA

KNFVQTD [15] = target: T14, KNFVQTD; assay: SPOT length analysis, dot 55, anti-histidine detection
RIFRSS = target: T22, RIFRSS; assay: SPOT length analysis, dot 56, anti-histidine detection
T22 sequence (peptide): RIFRSS

[16] = target: T23, …; assay: SPOT length analysis, dot 15, anti-histidine detection
T23 sequence (peptide): SSDFAKNFVQTD

SDFAKNFV = target: T24, SDFAKNFV; assay: SPOT length analysis, dot 42, HRP-S-protein detection
T24 sequence (peptide): SDFAKNFV

IFRS = target: T25, IFRS; assay: SPOT length analysis, dot 80, HRP-S-protein detection
T25 sequence (peptide): IFRS

AKNFVQ = target: T26, AKNFVQ; assay: SPOT length analysis, dot 64, HRP-S-protein detection
T26 sequence (peptide): AKNFVQ

AKNFVQTD = target: T27, AKNFVQTD; assay: SPOT length analysis, dot 45, HRP-S-protein detection
T27 sequence (peptide): AKNFVQTD

SSDF [17] = target: T16, SSDF; assay: SPOT length analysis, dot 83, HRP-S-protein detection
[18] = target: T1, …; assay: SPOT length analysis, dot 29, HRP-S-protein detection
[19] = target: T28, …; assay: SPOT length analysis, dot 23, anti-histidine detection
T28 sequence (peptide): IFRSSDFAKN

IFRSSDFA [20] = target: T5, IFRSSDFA; assay: SPOT length analysis, dot 38, HRP-S-protein detection
[21] = target: T29, …; assay: SPOT length analysis, dot 13, anti-histidine detection
T29 sequence (peptide): FRSSDFAKNFVQ

[22] = target: T30, …; assay: SPOT length analysis, dot 34, anti-histidine detection
T30 sequence (peptide): SDFAKNFVQ

SDFAK = target: T31, SDFAK; assay: SPOT length analysis, dot 72, HRP-S-protein detection
T31 sequence (peptide): SDFAK

- BLU His [1]: 43400 BLU
- BLU Sprotein (VQTD): 13800 BLU
- BLU Sprotein (IFRSSDF): 27800 BLU
- BLU His [2]: 41600 BLU
- BLU His (IFRSSDFA [3]): 21400 BLU
- BLU His (SDFA): 14200 BLU
- BLU Sprotein [4]: 18800 BLU
- BLU Sprotein [5]: 19500 BLU
- BLU His [6]: 40700 BLU
- BLU Sprotein [7]: 38100 BLU
- BLU Sprotein [8]: 223000 BLU
- BLU Sprotein [9]: 166000 BLU
- BLU His (RSSDF): 16100 BLU
- BLU Sprotein (KNFVQTD [10]): 16800 BLU
- BLU His [11]: 19100 BLU
- BLU His (SSDF [12]): 14100 BLU
- BLU Sprotein [13]: 20300 BLU
- BLU His [14]: 15700 BLU
- BLU Sprotein (RSSD): 14900 BLU
- BLU Sprotein (NFVQ): 13400 BLU
- BLU Sprotein (FRSSDFA): 17200 BLU
- BLU His (KNFVQTD [15]): 18300 BLU
- BLU His (RIFRSS): 122000 BLU
- BLU His [16]: 19200 BLU
- BLU Sprotein (SDFAKNFV): 15500 BLU
- BLU Sprotein (IFRS): 111000 BLU
- BLU Sprotein (AKNFVQ): 14100 BLU
- BLU Sprotein (AKNFVQTD): 15300 BLU
- BLU Sprotein (SSDF [17]): 14000 BLU
- BLU Sprotein [18]: 60900 BLU
- BLU His [19]: 19700 BLU
- BLU Sprotein (IFRSSDFA [20]): 24400 BLU
- BLU His [21]: 25800 BLU
- BLU His [22]: 18400 BLU
- BLU Sprotein (SDFAK): 14800 BLU
B1: recombinant his-S-tagged pro-domain of human BDNF (residues Ala1-Arg110), from pET-30 Xa/LIC, E. coli (protein, not shown: small tags and cut ends)
chain: APMKEANIRGQGGLAYPGVRTHGTLESVNGPKAGSGLTSLADTFEHVIEELLDEDQKVRPNEENNKDADLYTSRVMLSSQVPLEPPLLFLLEEYKNYLDAANMSMRVRR
